Biological target: S protein of SARS-CoV-1 on pseudotyped particles (SARS-CoV-1, UniProt P59594 14-1255)
Experiment: cell-based or functional assay

B1: IgG BU.7 (antibody, V domains shown)
VH: LEWGPGLVKPSETLSLTCTVSGGSISSINYYWVWIRQPPGKGLEWIGNINYSGTTNYNPSLKSRVTISVDTSKNQFSLKLSSVTAADTAVYYCARQTYYYDRRGYYRPEPIEHWGQGTLVTVSS
VL: ELVMTQSPSFLSASVGDRVTITCRASQDVRSFLHWYQQRPGKAPKLLIYAASMVSSEVPSRFSGSGSETDFTLTIDGLQPEDVATYFCQQTYDTPLTFGGGTAVDIK
neutralizing activity expressed as IC50 µg/ml (pseudovirus, luciferase): 1.3 µg/mL

B2: IgG BU.54 (antibody, V domains shown)
VH: LEWGPGLVKASQTLSLTCTVSGGSISSRNFYWSWIRQPGGKGLEWIGRIYTSGSTNYNPSLKSRVTISLDTSKSQFSLKLSSVTAADTAVYYCARGTFYYDRSGNGRLDPLDYWGQGTLVTVS
VL: ELVMTQSPSSLSASVGDRVTITCQASQDISNYLNWYQQKPGKAPKLLIYDASNLETGVPSRFSGSGFGTHFTLTISSLQPEDFATYYCQQHDNLVTFGGGTKVEIK
neutralizing activity expressed as IC50 µg/ml (pseudovirus, luciferase): 0.4 µg/mL

From US20260234220A1 (OSPEDALE SAN RAFFAELE S R L, published 2026)
